In US20040166109A1 (AVENTIS PHARMA S A, published 2004):

T1: GAL4 transactivating domain fusion of the central region of human hnRNPL (amino acids 116 to 464), brain … (human, UniProt P14866 147-495, limits assumed)
T1 construct: Two-hybrid prey isolated in the screen; also called central portion of hnRNPL
T1 sequence: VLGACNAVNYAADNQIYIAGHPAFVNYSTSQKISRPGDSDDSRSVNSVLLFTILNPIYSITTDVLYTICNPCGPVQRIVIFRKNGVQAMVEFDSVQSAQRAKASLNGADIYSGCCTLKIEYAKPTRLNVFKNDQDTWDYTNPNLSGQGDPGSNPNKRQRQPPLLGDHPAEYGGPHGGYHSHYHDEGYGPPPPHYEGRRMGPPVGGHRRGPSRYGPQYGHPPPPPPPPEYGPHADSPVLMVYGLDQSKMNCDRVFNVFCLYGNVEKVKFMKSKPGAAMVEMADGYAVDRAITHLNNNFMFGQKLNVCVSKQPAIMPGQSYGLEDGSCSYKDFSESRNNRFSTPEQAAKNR

T2: GAL4 transactivating domain fusion of the FEBP1 (FE65 Binding PTB1 domain protein) fragment of 337 amino … (human, UniProt Q9UH62 44-379, limits assumed)
T2 construct: Two-hybrid prey isolated from a human brain cDNA library; a fragment of FEBP1, limits on the whole protein not known; also called fragment of the FEBP1 protein
T2 sequence: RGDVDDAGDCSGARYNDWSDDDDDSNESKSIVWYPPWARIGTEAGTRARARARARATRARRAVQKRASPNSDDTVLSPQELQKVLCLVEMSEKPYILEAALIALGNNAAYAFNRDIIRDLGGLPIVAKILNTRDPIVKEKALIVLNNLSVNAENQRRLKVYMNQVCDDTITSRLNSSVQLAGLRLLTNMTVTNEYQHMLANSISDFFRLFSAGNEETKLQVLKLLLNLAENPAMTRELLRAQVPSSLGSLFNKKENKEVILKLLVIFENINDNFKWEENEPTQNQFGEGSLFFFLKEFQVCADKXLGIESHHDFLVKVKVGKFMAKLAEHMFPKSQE

B1: LexA fusion of the PTB1 domain of the human FE65 protein (amino acids 395 to 543), expressed from pLex-FE65PTB1 (other)
chain: PPRNTNPGIKCFAVRSLGWVEMTEEELAPGRSSVAVNNCIRQLSYHKNNLHDPMSGGWGEGKDLLLQLEDETLKLVEPQSQALLHAQPIISIRVWGVGRDSGRDFAYVARDKLTQMLKCHVFRCEAPAKNIATSLHEICSKIMAERRNA
notes: Two-hybrid bait expressed in yeast strain L40; PTB1 fragment cloned between XmaI and SalI downstream of LexA; also called PTB1 domain of FE65; not shown: LexA protein encoded by vector pLex9 (pBTM116); N-terminal fusion partner
B2: GAL4 transactivating domain fusion of the cytoplasmic domain of the APP protein, expressed from pGAD-App (other, UniProt P05067 723-770, looked up, not shown: large carriers)
chain: LKKKQYTSIHHGVVEVDAAVTPEERHLSKMQQNGYENPTYKFFEQMQN
notes: domain: cytoplasmic domain; Control prey; also called C-terminal domain of the APP

Assays:
Assay in all cases: yeast two-hybrid (LexA bait, GAL4 AD prey), beta-galactosidase filter assay
[1] = molecular target: T1, GAL4 transactivating domain fusion of …
[2] = molecular target: T2, GAL4 transactivating domain fusion of …
[3] = molecular target: B1

| Binder | binding result [1] | binding result [2] | binding result [3] |
| --- | --- | --- | --- |
| B1 | binds | binds |  |
| B2 |  |  | no binding |
